Where a chain is given by its changes, count along the chain named. Like-named read-outs stand apart in the source and are kept apart here.
Experiments:
[1] = biological target: Mcm1p(1-98);Yox1p full length (Saccharomyces cerevisiae;Saccharomyces …, UniProt P11746;P34161 1-98;1-385, |); assay: immobilized template pull-down
Mcm1p(1-98);Fkh2p(1-458) [2] = biological target: T1, Mcm1p(1-98);Fkh2p(1-458) (Saccharomyces cerevisiae;Saccharomyces …, UniProt P11746;P41813 1-98;1-458, |); assay: EMSA
Mcm1p(1-98) [3] = biological target: T2, Mcm1p(1-98) (Saccharomyces cerevisiae, UniProt P11746 1-98); assay: EMSA
Mcm1p(1-98);Fkh2p(1-458) [4] = biological target: T1, Mcm1p(1-98);Fkh2p(1-458); assay: EMSA; remark: listed apart in the source
Mcm1p(1-98) [5] = biological target: T2, Mcm1p(1-98); assay: EMSA; remark: listed apart in the source
Mcm1p(1-98);Yox1p(E196H) = Mcm1p(1-98);Yox1p(E196H) (Saccharomyces cerevisiae;Saccharomyces …, UniProt P11746;P34161 1-98;151-274, |E196H); assay: EMSA
[6] = biological target: Mcm1p(1-98);Yox1p(151-274) recombinant (Saccharomyces cerevisiae;Saccharomyces …, UniProt P11746;P34161 1-98;151-274, |); assay: EMSA
Fkh2p(325-458) = biological target: T3, Fkh2p(325-458) (Saccharomyces cerevisiae, UniProt P41813 325-458); assay: EMSA
T3 sequence: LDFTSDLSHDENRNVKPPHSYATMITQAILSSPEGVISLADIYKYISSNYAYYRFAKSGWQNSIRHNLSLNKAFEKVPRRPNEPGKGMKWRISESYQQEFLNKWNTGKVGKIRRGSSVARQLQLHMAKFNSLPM

[7] = biological target: Mcm1p(1-98);Yox1p(151-274) (Saccharomyces cerevisiae;Saccharomyces …, UniProt P11746;P34161 1-98;151-274, |); assay: EMSA
[8] = biological target: Mcm1p(1-96);Fkh2p full length (Saccharomyces cerevisiae;Saccharomyces …, UniProt P11746;P41813 1-96;1-862, |); assay: EMSA
Mcm1p(1-96);Fkh2p full length, sequence (P41813 whole entry, one chain of several): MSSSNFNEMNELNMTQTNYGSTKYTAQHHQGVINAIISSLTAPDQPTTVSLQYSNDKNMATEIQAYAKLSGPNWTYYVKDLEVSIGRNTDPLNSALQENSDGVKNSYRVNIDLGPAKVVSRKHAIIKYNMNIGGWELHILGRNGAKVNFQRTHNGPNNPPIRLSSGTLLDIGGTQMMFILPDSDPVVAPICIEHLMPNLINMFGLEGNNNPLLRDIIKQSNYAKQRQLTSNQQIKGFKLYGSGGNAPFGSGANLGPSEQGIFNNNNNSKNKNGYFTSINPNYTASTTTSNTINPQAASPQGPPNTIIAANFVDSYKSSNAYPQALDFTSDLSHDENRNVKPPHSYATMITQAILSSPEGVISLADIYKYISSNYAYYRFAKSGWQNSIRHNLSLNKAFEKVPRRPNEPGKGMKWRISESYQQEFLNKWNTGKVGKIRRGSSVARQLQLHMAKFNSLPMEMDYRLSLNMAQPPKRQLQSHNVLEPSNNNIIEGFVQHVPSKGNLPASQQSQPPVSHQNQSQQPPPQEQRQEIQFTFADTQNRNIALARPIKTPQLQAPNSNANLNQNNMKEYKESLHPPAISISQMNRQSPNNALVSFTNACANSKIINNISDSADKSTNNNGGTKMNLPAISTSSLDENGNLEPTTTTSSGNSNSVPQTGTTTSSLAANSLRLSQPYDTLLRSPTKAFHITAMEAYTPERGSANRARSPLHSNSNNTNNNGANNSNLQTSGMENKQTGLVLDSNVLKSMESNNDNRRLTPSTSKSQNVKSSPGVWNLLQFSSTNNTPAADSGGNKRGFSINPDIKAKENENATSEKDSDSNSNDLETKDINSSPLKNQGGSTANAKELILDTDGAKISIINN

[9] = biological target: Mcm1p(1-96);Yox1p(151-274) recombinant;Fkh2p(325-458) (Saccharomyces cerevisiae;Saccharomyces …, UniProt P11746;P34161;P41813 1-96;151-274;325-458, ||); assay: EMSA
Yox1p F163 mutant = biological target: T4, Yox1p F163 mutant (Saccharomyces cerevisiae, UniProt P34161 151-274, F163A); assay: EMSA
T4 sequence: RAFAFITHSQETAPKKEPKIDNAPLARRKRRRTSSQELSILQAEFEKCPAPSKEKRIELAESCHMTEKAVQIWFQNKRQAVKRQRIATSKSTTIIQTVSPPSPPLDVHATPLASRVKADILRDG

Yox1p(F153A) = biological target: T5, Yox1p(F153A) (Saccharomyces cerevisiae, UniProt P34161 151-274, F153A); assay: EMSA
T5 sequence: T4 sequence with F3A, A13F

Yox1p(F155A) = biological target: T6, Yox1p(F155A) (Saccharomyces cerevisiae, UniProt P34161 151-274, F155A); assay: EMSA
T6 sequence: T4 sequence with F5A, A13F

[10] = biological target: T7, Yox1p(176-274) recombinant (Saccharomyces cerevisiae, UniProt P34161 176-274); assay: EMSA
T7 sequence: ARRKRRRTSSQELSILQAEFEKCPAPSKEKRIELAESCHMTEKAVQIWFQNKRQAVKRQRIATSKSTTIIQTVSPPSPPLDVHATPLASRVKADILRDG

[11] = biological target: T8, Yox1p(151-274) recombinant (Saccharomyces cerevisiae, UniProt P34161 151-274); assay: EMSA
T8 sequence: T4 sequence with A13F

[12] = biological target: Mcm1p(1-98);Yox1p(N226Q) recombinant (Saccharomyces cerevisiae;Saccharomyces …, UniProt P11746;P34161 1-98;151-274, |N226Q); assay: competition
[13] = biological target: Mcm1p(1-96);Yox1p(151-274) recombinant (Saccharomyces cerevisiae;Saccharomyces …, UniProt P11746;P34161 1-96;151-274, |); assay: competition
[14] = biological target: T9, recombinant Flag-tagged Yox1p(151–274) (S. cerevisiae, UniProt P34161 151-274); assay: pull-down
T9 sequence (looked up): T4 sequence with A13F

Mcm1p(1-98);Yox1p full length, sequence (P34161 whole entry, one chain of several): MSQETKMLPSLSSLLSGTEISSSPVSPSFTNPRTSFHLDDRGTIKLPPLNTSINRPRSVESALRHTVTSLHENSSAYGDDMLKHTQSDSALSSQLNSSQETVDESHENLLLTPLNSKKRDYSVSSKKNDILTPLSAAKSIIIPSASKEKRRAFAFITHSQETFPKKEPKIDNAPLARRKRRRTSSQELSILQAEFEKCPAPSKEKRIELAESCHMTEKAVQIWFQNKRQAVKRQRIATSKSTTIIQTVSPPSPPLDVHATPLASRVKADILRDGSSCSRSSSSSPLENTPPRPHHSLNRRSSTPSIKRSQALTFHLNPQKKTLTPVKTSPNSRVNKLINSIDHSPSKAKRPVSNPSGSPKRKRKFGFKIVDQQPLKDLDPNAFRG

B1: SPO12 WT biotin (dsDNA)
DNA 1: TCGAGGTTAATATCTTTTCCTAATTTGGAAATATGTAAACAGGGC
DNA 2: TCGAGCCCTGTTTACATATTTCCAAATTAGGAAAAGATATTAACC
binding result [1]: binds

B2: SPO12 mut (Yox1p site) (dsDNA)
DNA 1: B1 DNA 1 with A10G, T11G
DNA 2: B1 DNA 2 with A39C, T40C
binding result (Mcm1p(1-98);Fkh2p(1-458) [2]): binds | binding result (Mcm1p(1-98) [3]): binds

B3: SPO12 WT (dsDNA)
DNA 1: B1 DNA 1
DNA 2: B1 DNA 2
binding result (Mcm1p(1-98);Fkh2p(1-458) [4]): binds | binding result (Mcm1p(1-98) [5]): binds | binding result (Mcm1p(1-98);Yox1p(E196H)): binds | binding result [6]: binds | binding result (Fkh2p(325-458)): binds | binding result [7]: binds | binding result [8]: binds | binding result [9]: binds | binding result (Yox1p F163 mutant): binds | binding result (Yox1p(F153A)): binds | binding result (Yox1p(F155A)): binds | binding result [10]: binds | binding result [11]: binds | binding result [12]: no binding | binding result [13]: binds

B4: MBP-Mcm1p(1–96) (domain or fragment, S. cerevisiae, UniProt P11746 1-96, looked up)
chain: MSDIEEGTPTNNGQQKERRKIEIKFIENKTRRHVTFSKRKHGIMKKAFELSVLTGTQVLLLVVSETGLVYTFSTPKFEPIVTQQEGRNLIQACLNA
binding result [14]: binds
